B1: COP-3 (CpE Obstructing Protein 3), synthetic antigen-binding fragment (Fab, V domains shown)
VH: EVQLVESGGGLVQPGGSLRLSCAASGFNFYSSSIHWVRQAPGKGLEWVAYISSYSGYTYYADSVKGRFTISADTSKNTAYLQMNSLRAEDTAVYYCARGYGYFDYNFSVGYALDYWGQGTLVTVSS
VL: DIQMTQSPSSLSASVGDRVTITCRASQSVSSAVAWYQQKPGKAPKLLIYSASSLYSGVPSRFSGSRSGTDFTLTISSLQPEDFATYYCQQSHPWYYPITFGQGTKVEIK
notes: also called sFab; source: E. coli BL21-Gold, purified (MabSelect SuRe, Resource S)
B2: COP-2 (CpE Obstructing Protein 2), synthetic antigen-binding fragment (Fab, V domains shown)
VH: EVQLVESGGGLVQPGGSLRLSCAASGFNFSSSSIHWVRQAPGKGLEWVASISSYSGYTSYADSVKGRFTISADTSKNTAYLQMNSLRAEDTAVYYCARYWSWYNSSHYIYSALDYWGQGTLVTVSS
VL: DIQMTQSPSSLSASVGDRVTITCRASQSVSSAVAWYQQKPGKAPKLLIYSASSLYSGVPSRFSGSRSGTDFTLTISSLQPEDFATYYCQQSYEWAPVTFGQGTKVEIK
notes: as for B1

Biological target: biotinylated claudin-4–cCpE^1 complex (Homo sapiens claudin-4; Clostridium …, UniProt O14493;P01558, biotin (NHS-PEG4-biotin; sites not stated))
Experiment: BLI
Settings: both partners purified

Sequence of biotinylated claudin-4–cCpE^1 complex (O14493 whole entry, chain 1 of 2): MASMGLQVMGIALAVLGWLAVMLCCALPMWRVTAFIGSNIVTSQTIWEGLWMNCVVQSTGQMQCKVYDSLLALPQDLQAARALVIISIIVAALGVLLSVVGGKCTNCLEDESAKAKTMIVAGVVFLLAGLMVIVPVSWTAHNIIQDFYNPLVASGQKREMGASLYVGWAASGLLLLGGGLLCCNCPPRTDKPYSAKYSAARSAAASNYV
Sequence of biotinylated claudin-4–cCpE^1 complex (P01558 197-319, chain 2 of 2): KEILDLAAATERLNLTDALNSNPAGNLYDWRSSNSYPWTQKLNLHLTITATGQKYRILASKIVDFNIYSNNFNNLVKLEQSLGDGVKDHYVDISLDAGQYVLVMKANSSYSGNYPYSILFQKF

Row | Binder | Kd | koff | kon
1 | B1 | 200 ± 5.5 nM | 0.0039 s⁻¹ | 19000 M⁻¹ s⁻¹
2 | B2 | 161.3 ± 0.6 nM | 0.0012 s⁻¹ | 7700 M⁻¹ s⁻¹
